For experiment [1], the target named is hu-HER2-ch(IV) (human; chicken (Gallus gallus)) (UniProt P04626). Nature of the experiment: flow cytometry on CHO-S cells transiently transfected with hu-HER2-ch(IV), PE-goat anti-human IgG, MFI (Example 24).
Experiment [2] has as its target hu-HER2-ch(III) (human; chicken (Gallus gallus)) (UniProt P04626). Briefly: flow cytometry on CHO-S cells transiently transfected with hu-HER2-ch(III), PE-goat anti-human IgG, MFI (Example 24).
The target in experiment [3] is hu-HER2-ch(I) (chicken (Gallus gallus); human) (UniProt P04626). Nature of the experiment: flow cytometry on CHO-S cells transiently transfected with hu-HER2-ch(I), PE-goat anti-human IgG, MFI (Example 24).

B1: HER2 HuMab 153 (antibody, V domains shown)
VH: QVQLVESGGGVVQPGRSLRLSCAASGFTFSDYVIHWVRQAPGKGLEWVTVISYDGSNKYYADSVKGRFTISRDNSKNTLYLQMNSLSAEDTAMYYCARGGITGTTGVFDYWGQGTLVTVSS
VL: DIQMTQSPSSLSASVGDRVTITCRASQGISSWLAWYQQKPEKAPKSLIYDASSLQSGVPSRFSGSGYGTDFSLTISSLQPEDFAIYYCQQYKSYPITFGQGTRLEIK
Consider B1, for which the EC50 (read off the curve) in experiment [1] turned out to be 0.04 µg/mL; in experiment [2], 0.03 µg/mL; in experiment [3], 0.05 µg/mL.

For the origin of these results see patent US20140170149A1.
